Consider 25 molecules from patent publication US20030119023, “Nucleic acid binding polypeptides characterized by flexible linkers connected nucleic acid binding modules” (published 2003).

Data set [1] addresses GAC-F4-ZIF (artificial). As to the kind of experiment: EMSA; 7 bp gap spanned without significant loss. The note with it: label: 32P. A general note: A gel shift assay detects complexes by their altered migration in electrophoresis.
Data set [2] addresses GAC-F4-ZIF (artificial). The experiment in a line: EMSA; 10 bp gap spanned without significant loss. The following applies: label: 32P.
Data set [3] has as its target GAC-F4-ZIF (artificial). As to the kind of experiment: EMSA; optimal 9 bp gap. The note with it: label: 32P. The method, then: (§1) DNA binding reactions contain the appropriate zinc-finger peptide, binding site and 1 μg competitor DNA (poly dI-dC) in a total volume of 10 μl, which contains: 20 mM Bis-tris propane (pH 7.0), 100 mM NaCl, 5 mM MgCl₂, 50 μM ZnCl₂, 5 mM DTT, 0.1 mg/ml BSA, 0.1% Nonidet P40. Incubations are performed at room temperature for 1 hour.
(§2) To determine whether TFIIIA F4 would still function as a linker when taken out of the context of neighbouring TFIIIA fingers, the GAC-F4-ZIF construct is made (FIGS. 14 and 16). This construct can be thought of simply as two ZIF-based DNA binding domains joined by a structured linker (in this case TFIIIA F4). […] In this case, however, the optimal DNA span is found to be 8 or 9 bps, although 7-11 bp stretches could be spanned without a significant loss in binding affinity.

The target of data set [4] is TF(1-4)-ZIF (TFIIIA F1-4 fused to Zif268) (artificial). As to the kind of experiment: EMSA; no preference for gap composition (data not shown). The following applies: label: 32P.
Sequence of TF(1-4)-ZIF (TFIIIA F1-4 fused to Zif268) (artificial) (chain, as listed by the source): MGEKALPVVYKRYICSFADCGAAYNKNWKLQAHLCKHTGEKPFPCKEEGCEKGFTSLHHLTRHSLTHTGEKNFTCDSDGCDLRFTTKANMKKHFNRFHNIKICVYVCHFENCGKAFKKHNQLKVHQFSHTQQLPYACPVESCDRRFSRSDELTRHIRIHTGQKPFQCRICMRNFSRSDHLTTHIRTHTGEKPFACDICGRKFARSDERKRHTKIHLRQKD
The target in data set [5] is ZIF-ZnF-GAC (serine-finger linker) (artificial). The experiment in a line: EMSA. The following applies: label: 32P. The method, then: as §1
Sequence of ZIF-ZnF-GAC (serine-finger linker) (artificial) (chain, as listed by the source): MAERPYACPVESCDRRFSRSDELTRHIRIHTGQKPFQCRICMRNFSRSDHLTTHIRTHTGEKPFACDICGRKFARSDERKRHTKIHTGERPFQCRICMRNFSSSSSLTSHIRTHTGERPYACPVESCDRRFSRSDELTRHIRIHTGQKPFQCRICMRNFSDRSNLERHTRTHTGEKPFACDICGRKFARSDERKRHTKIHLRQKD
For this purpose a ‘neutral’ finger is created by replacing the DNA binding residues (those at positions −1, 2, 3, and 6) of wild type ZIF268 finger 2, with serine residues. Serine can act as either an H-bond acceptor or donator, and can therefore interact with all four bases in DNA. This new finger, denoted “ZnF” and flanked by two GERP linkers, is used to join the three-finger peptides of ZIF and the GAC-clone, creating the seven-finger array ZIF-ZnF-GAC (FIG. 17). This peptide is targeted against non-contiguous sites comprising the 9 bp ZIF and GAC-clone recognition sequences separated by 2, 3, 4 or 5 bps of DNA, and also sites bsA and bsC for comparison (FIG. 21).

Data set [6] concerns the target 3x2F ZGS (artificial). The experiment in a line: EMSA; apparent Kd. The following applies: label: 32P. Here is the method:
as §1
(§3) Dissociation constants are determined in parallel to the calculation of active peptide concentration. Serial 3, 4 or 5-fold dilutions of crude peptide are made and incubated with radiolabelled binding site (0.1 pM-500 pM depending on the peptide), as above. Samples are run on 7% native polyacrylamide gels and the radioactive signals quantitated by PhosphorImager analysis. The data is then analysed according to linear transformation of the binding equation and plotted in CA-Cricket Graph III (Computer Associates Inc. NY) to generate the apparent dissociation constants. The Kd values reported are the average of at least two separate studies.

The target in another data set is 2x3F ZIF-GAC (artificial). As to the kind of experiment: EMSA; apparent Kd. The note with it: label: 32P. Here is the method: as §1, §3
Sequence of 2x3F ZIF-GAC (artificial) (chain, as listed by the source): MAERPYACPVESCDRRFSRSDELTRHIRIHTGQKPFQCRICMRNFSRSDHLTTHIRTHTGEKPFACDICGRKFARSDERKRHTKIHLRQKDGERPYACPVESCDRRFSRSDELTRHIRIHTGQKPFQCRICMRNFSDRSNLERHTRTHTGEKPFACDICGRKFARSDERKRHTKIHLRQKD
Data set [7] addresses ZIF-ZnF-GAC (serine-finger linker) (artificial). As to the kind of experiment: EMSA; apparent Kd. The following applies: label: 32P. Here is the method: as §1, §3
A further set of binding studies is then carried out on the construct containing the non-specific zinc finger linker, ZIF-ZnF-GAC. Although this construct is expected to target (primarily) non-contiguous sequences containing three or four base pairs of non-bound DNA, it is tested against all of the binding sites from ZM to Z10M. […]

The target of the next data set is 3x2F ZGXL (artificial). As to the kind of experiment: EMSA. The note with it: label: 32P. The method, then: as §1
Sequence of 3x2F ZGXL (artificial) (chain, as listed by the source): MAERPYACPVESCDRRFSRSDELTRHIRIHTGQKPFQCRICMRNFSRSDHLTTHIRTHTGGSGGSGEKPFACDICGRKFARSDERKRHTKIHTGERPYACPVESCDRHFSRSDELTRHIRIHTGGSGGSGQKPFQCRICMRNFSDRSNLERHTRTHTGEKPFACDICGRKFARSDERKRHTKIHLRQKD
3x2F ZGXL binds the non-contiguous site bsD approximately as tightly as the 3x2F ZGS peptide binds the contiguous 18 bp site, bsC. However, the 3x2F ZGXL peptide binds bsE (containing 2 base pair gaps between target subsites) approximately 500-fold less tightly than it does bsC and bsD, as shown in FIG. 11. This is presumably because it can only bind bsE through 2 fingers.

The target in the next data set is 3x2F ZGSL (artificial). The experiment in a line: EMSA; apparent Kd. The note with it: label: 32P. The method, then: as §1, §3
Sequence of 3x2F ZGSL (artificial) (chain, as listed by the source): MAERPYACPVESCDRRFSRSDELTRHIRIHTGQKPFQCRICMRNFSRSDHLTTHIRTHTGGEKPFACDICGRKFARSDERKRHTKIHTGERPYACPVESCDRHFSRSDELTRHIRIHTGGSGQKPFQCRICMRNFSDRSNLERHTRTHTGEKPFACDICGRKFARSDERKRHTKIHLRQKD
(§4) First the 3x2F ZGS and ZGL peptides are titrated against 12/34/56 (three 6 bp subsites separated by 1 bp, which is represented by a single ‘/’ in the binding site name) and 12//34//56 (three 6 bp subsites separated by 2 bps) binding sites. […] Next, the 3x2F ZGSL and 3x2F ZGLS peptides are targeted against the three non-contiguous sequences: 1234/56, 12/3456 and 12//34//56. […] 3x2F ZGLS show a similar trend in binding affinities.

Another data set has as its target 3x2F ZGL (artificial). As to the kind of experiment: EMSA; apparent Kd. The note with it: label: 32P. The method, then: as §1, §3, §4
In another data set the target is 3x2F ZGLS (artificial). The experiment in a line: EMSA; apparent Kd. The following applies: label: 32P. The method, then: as §1, §3, §4
Sequence of 3x2F ZGLS (artificial) (chain, as listed by the source): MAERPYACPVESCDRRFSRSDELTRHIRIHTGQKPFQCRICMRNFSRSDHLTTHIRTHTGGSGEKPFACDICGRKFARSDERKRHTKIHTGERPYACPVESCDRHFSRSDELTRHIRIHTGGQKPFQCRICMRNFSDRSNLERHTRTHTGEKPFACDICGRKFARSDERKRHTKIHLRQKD
In data set [8] the target is TF(1-4)-ZIF (TFIIIA F1-4 fused to Zif268) (artificial). The experiment in a line: EMSA; apparent Kd; table prints gap as X7. The following applies: label: 32P. The method, then: as §1, §3
(§5) The TF(1-4)-ZIF and TF(1-3)-flex-ZIF peptides are tested against the non-contiguous TF-5,6,7,8,9-Z sites. In these first experiments the DNA composition of the non-bound region is based on the endogenous TFIIIA target site. […] The target sites with 5, 6 or 9 bp gaps are bound at least 5-fold weaker (FIG. 27A). […]

Data set [9] concerns the target Zif268 (wild-type ZIF, three-finger) (UniProt P08046 P08046:333-421). As to the kind of experiment: EMSA; Bis-tris propane pH 7.0, 100 mM NaCl, 5 mM MgCl2, 50 uM ZnCl2, room temperature.
Data set [10] has as its target 3x2F ZGS (artificial). The experiment in a line: EMSA; apparent Kd. The following applies: label: 32P. Here is the method:
as §1, §3, §4
The source holds these as a separate data set.

In data set [11] the target is TF(1-4)-ZIF (TFIIIA F1-4 fused to Zif268) (artificial). As to the kind of experiment: EMSA; apparent Kd; table prints gap as X6. The note with it: label: 32P. The method, then:
as §1, §3, §5

The target is the same in data set [12]. The experiment in a line: EMSA; apparent Kd; table prints gap as X8. The note with it: label: 32P. The method, then: as §1, §3, §5
For data set [13] the target is unchanged. As to the kind of experiment: EMSA; apparent Kd; table prints gap as X5. The following applies: label: 32P. The method, then:
as §1, §3

Data set [14] has the same target. As to the kind of experiment: EMSA; apparent Kd; table prints gap as X9. The following applies: label: 32P. Here is the method: as §1, §3, §5
Data set [15] deals with GAC-F4-ZIF (artificial). As to the kind of experiment: EMSA; optimal 8 bp gap. The following applies: label: 32P. The method, then:
as §1, §2

Sequence of 3x2F ZGS (artificial) (chain, as listed by the source): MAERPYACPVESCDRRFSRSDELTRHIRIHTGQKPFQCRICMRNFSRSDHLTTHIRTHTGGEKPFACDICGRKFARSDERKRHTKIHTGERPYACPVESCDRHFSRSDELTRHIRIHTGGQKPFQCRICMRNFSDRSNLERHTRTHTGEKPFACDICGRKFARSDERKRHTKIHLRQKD
Sequence of GAC-F4-ZIF (artificial) (chain, as listed by the source): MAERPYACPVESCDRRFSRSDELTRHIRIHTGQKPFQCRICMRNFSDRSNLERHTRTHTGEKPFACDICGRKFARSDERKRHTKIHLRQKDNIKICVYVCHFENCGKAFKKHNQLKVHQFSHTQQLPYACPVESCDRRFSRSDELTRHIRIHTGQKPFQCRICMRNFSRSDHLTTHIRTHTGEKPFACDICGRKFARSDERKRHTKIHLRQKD
Sequence of 3x2F ZGL (artificial) (chain, as listed by the source): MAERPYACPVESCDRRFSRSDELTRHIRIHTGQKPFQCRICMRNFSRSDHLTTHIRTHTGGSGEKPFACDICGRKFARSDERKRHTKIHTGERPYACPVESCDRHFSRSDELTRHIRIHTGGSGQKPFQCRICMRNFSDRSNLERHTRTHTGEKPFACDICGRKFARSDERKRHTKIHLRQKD

B1: bsB2 (dsDNA)
DNA 1: GCGTGGGCGGTACCTGGCGGACGCG
DNA 2: CGCGTCCGCCAGGTACCGCCCACGC
Turning to B1, the binding result in the data set with GAC-F4-ZIF [1] is given as “binds”.

B2: bsE2 (dsDNA)
DNA 1: GCGTGGGCGTTAGTACCTGGCGGACGCG
DNA 2: CGCGTCCGCCAGGTACTAACGCCCACGC
In the case of B2, in the data set with GAC-F4-ZIF [2], the binding result is “binds”.

B3: bsD2 (dsDNA)
DNA 1: GCGTGGGCGTAGTACCTGGCGGACGCG
DNA 2: CGCGTCCGCCAGGTACTACGCCCACGC
As for B3, the binding signal with GAC-F4-ZIF [3] is at least 125 fold stronger than bsA.

B4: bsH1 (dsDNA)
DNA 1: GCGTGGGCGAAAAAAGGATGGGAGAC
DNA 2: GTCTCCCATCCTTTTTTCGCCCACGC
On to B4, for which, in data set [4], the binding result is “binds”.

B5: Z5G (dsDNA)
DNA 1: GCGGACGCGCTAGTGCGTGGGCG
DNA 2: CGCCCACGCACTAGCGCGTCCGC
For the molecule B5, the binding signal in data set [5] is at least 500 fold stronger than bsA.

B6: bsG1 (dsDNA)
DNA 1: GCGTGGGCGCTTGACGGATGGGAGAC
DNA 2: GTCTCCCATCCGTCAAGCGCCCACGC
For the molecule B6, in data set [4], the binding result is reported as “binds”.

B7: Z2G (dsDNA)
DNA 1: GCGGACGCGGTGCGTGGGCG
DNA 2: CGCCCACGCACCGCGTCCGC
Consider B7, for which, in data set [5], the binding signal was at least 500 fold stronger than bsA.

B8: bs3 (123//56) (dsDNA)
DNA 1: GCGGACTCGCGTGGGCG
DNA 2: CGCCCACGCGAGTCCGC
Consider B8, for which the results for the Kd in the data set with 3x2F ZGS [6] and with 2x3F ZIF-GAC were 0.27 nM and 0.014 nM, respectively.

B9: bsC (123456, ZM) (dsDNA)
DNA 1: GCGGACGCGGCGTGGGCG
DNA 2: CGCCCACGCCGCGTCCGC
Turning to B9, the Kd in data set [7] was determined as 0.007 nM; with 2x3F ZIF-GAC it was 0.0014 nM. For the same molecule, in the data set with 3x2F ZGXL, the binding result is given as “binds”.

B10: bsE (12//34//56) (dsDNA)
DNA 1: GCGGAGTCGCGGCGTCTGGGCG
DNA 2: CGCCCAGACGCCGCGACTCCGC
With B10, the Kd with 3x2F ZGSL was 12 nM; with 3x2F ZGL, 11 nM; in the data set with 3x2F ZGLS, 12 nM.

B11: Z4G (dsDNA)
DNA 1: GCGGACGCGTAGTGCGTGGGCG
DNA 2: CGCCCACGCACTACGCGTCCGC
On to B11, for which the binding signal in [5] is at least 500 fold stronger than bsA.

B12: bs1 (12356) (dsDNA)
DNA 1: GCGGACGCGTGGGCG
DNA 2: CGCCCACGCGTCCGC
With B12, the Kd is 22 nM in the data set with 3x2F ZGS [6] and 0.36 nM in the data set with 2x3F ZIF-GAC.

B13: Z3G (dsDNA)
DNA 1: GCGGACGCGAGTGCGTGGGCG
DNA 2: CGCCCACGCACTCGCGTCCGC
For B13, the binding signal in data set [5] is at least 500 fold stronger than bsA.

B14: bs4 (123///56) (dsDNA)
DNA 1: GCGGACATCGCGTGGGCG
DNA 2: CGCCCACGCGATGTCCGC
In the case of B14, the Kd stood at 0.89 nM in the data set with 3x2F ZGS [6] and 0.015 nM with 2x3F ZIF-GAC.

B15: TF7Z (bsC1) (dsDNA)
DNA 1: GCGTGGGCGAGTACCTGGATGGGAGAC
DNA 2: GTCTCCCATCCAGGTACTCGCCCACGC
As for B15, the Kd in data set [8] worked out at 0.003 nM.

B16: bsA (ZIF site) (dsDNA)
DNA 1: GCGTGGGCG
DNA 2: CGCCCACGC
For the molecule B16, the Kd in data set [9] turned out to be 0.45 nM.

B17: bsF (1234/56 in Table 5) (dsDNA)
DNA 1: GCGGACTGCGGCGTGGGCG
DNA 2: CGCCCACGCCGCAGTCCGC
B17: the Kd in the data set with 3x2F ZGS [10] came to 0.054 nM; with 3x2F ZGSL, 0.003 nM; with 3x2F ZGLS it was 0.089 nM.

B18: TF6Z (bsB1) (dsDNA)
DNA 1: GCGTGGGCGGTACCTGGATGGGAGAC
DNA 2: GTCTCCCATCCAGGTACCGCCCACGC
Regarding B18, the Kd in data set [11] is 0.017 nM.

B19: bsD (12/34/56) (dsDNA)
DNA 1: GCGGACTGCGGCGTTGGGCG
DNA 2: CGCCCAACGCCGCAGTCCGC
With B19, the Kd came to 18 nM with 3x2F ZGS [10], 0.11 nM with 3x2F ZGSL, 0.005 nM with 3x2F ZGL and 0.12 nM in the data set with 3x2F ZGLS.

B20: TF8Z (bsD1) (dsDNA)
DNA 1: GCGTGGGCGTAGTACCTGGATGGGAGAC
DNA 2: GTCTCCCATCCAGGTACTACGCCCACGC
For B20, the Kd in [12] amounted to 0.003 nM.

B21: TF5Z (bsA1) (dsDNA)
DNA 1: GCGTGGGCGTACCTGGATGGGAGAC
DNA 2: GTCTCCCATCCAGGTACGCCCACGC
For the molecule B21, in [13], the Kd came out at 0.021 nM.

B22: TF9Z (bsE1) (dsDNA)
DNA 1: GCGTGGGCGTTAGTACCTGGATGGGAGAC
DNA 2: GTCTCCCATCCAGGTACTAACGCCCACGC
In the case of B22, the Kd in [14] was 0.015 nM.

B23: bsC2 (dsDNA)
DNA 1: GCGTGGGCGAGTACCTGGCGGACGCG
DNA 2: CGCGTCCGCCAGGTACTCGCCCACGC
Take B23: the binding signal with GAC-F4-ZIF [15] was at least 125 fold stronger than bsA.

B24: bs2 (123/56) (dsDNA)
DNA 1: GCGGACTGCGTGGGCG
DNA 2: CGCCCACGCAGTCCGC
B24: the results for the Kd with 3x2F ZGS [6] and with 2x3F ZIF-GAC were 0.63 nM and 0.014 nM, respectively.

B25: bsG (12/3456 in Table 5) (dsDNA)
DNA 1: GCGGACGCGGCGTTGGGCG
DNA 2: CGCCCAACGCCGCGTCCGC
Take B25: the results for the Kd in the data set with 3x2F ZGS [10], in the data set with 3x2F ZGSL and in the data set with 3x2F ZGLS were 0.077 nM, 0.073 nM and 0.005 nM, respectively.
